# Test results taken from patent publication US20250177373A1.
# Key:
# [1] = target: gp41-inter (HIV-1; HIV-1 clade A isolate 92UG037.8); assay: fluorescence anisotropy/polarization, FITC-labeled 2F5 Fab held at 50 nM, gp41-inter titrated; the concentration read is that of gp41-inter
# [2] = target: gp41-inter (HIV-1; HIV-1 clade A isolate 92UG037.8); assay: fluorescence anisotropy/polarization; FITC-4E10 Fab, gp41-inter titrated
# [3] = target: gp41-inter (HIV-1; HIV-1 clade A isolate 92UG037.8); assay: fluorescence anisotropy/polarization, FITC-labeled 4E10 Fab, gp41-inter titrated; the concentration read is that of gp41-inter
substance,measurement,setting,value
2F5 Fab,EC50 (read off the curve),[1],10 nM
4E10 Fab,Kd,[2],23 nM
same,EC50 (read off the curve),[3],20 nM
